Measured values: the supplement of paper PMC12764529
± gives the half width of the 95% confidence interval.

Columns and labels:
[1] = folding stability dG unfold (combined trypsin and chymotrypsin); higher = more stable
How it was run: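 How resistant each design was to proteolysis was captured as K50, inferred by Bayesian fitting of sequencing counts. Unfolding free energy was then derived relative to a sequence-predicted unfolded-state K50 and a shared folded-state K50, per protease or combined. Digestion used trypsin and chymotrypsin at 11 threefold-diluted concentrations plus a no-protease condition, on mini-proteins under 80 residues without cysteine in a PA-tagged cDNA display construct. Designs were kept only when AlphaFold2 dimer inter-PAE was above 15.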

[2] = folding stability dG unfold from chymotrypsin proteolysis; higher = more stable
Description: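 Folding stability of de novo designed mini-proteins (<80 aa, no Cys; designed by TrROS, TrMRF, ProteinMPNN and the joint model) was measured by cDNA display proteolysis with trypsin and chymotrypsin. Each protease was used at 11 concentrations in a threefold dilution series plus a no-protease condition. K50 was inferred by Bayesian fitting of sequencing counts, and dG unfold was derived against a sequence-predicted unfolded-state K50 (Tsuboyama et al. method). Sequences shown include variable-length N-terminal GS-type padding (SAGGSAGG...) inside a display construct carrying a PA tag. Rows were kept only if the AF2 dimer inter-PAE was >15, to exclude likely homo-oligomers.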

Sequence: SAGGSAGGEETLRVTEITDVEKPDNGPRIKFPIEHDGKKKPIDINVPPDDLKPGDTIPLEEILKSAGGSAGG [r6_585_TrROS]
- folding stability dG unfold [1]: 0.222 ± 0.15 kcal/mol
- folding stability dG unfold [2]: 0.847 ± 0.072 kcal/mol

Sequence: SAGGSAGGGPDLKVTDIEFDPETGEIRIRTEAGGKLVAEVTIKGAPPVPVYPDKDGNWYPAGAKSAGGSAGG [r6_832_TrMRF]
- folding stability dG unfold [1]: 0.517 ± 0.12 kcal/mol
- folding stability dG unfold [2]: 0.986 ± 0.062 kcal/mol

Sequence: SAGGSAGGGPYKTSYAIVDGSVVASTEGDPETGVVTSTFTFDGSDVEYTTPATPGEAVTRTVSLSAGGSAGG [r6_972_JUSTAS]
- folding stability dG unfold [1]: 0.346 ± 0.047 kcal/mol
- folding stability dG unfold [2]: 0.797 ± 0.059 kcal/mol

Sequence: SAGGSAGGITLVVEGMPAEQMEEMKQKIREFAEDYNVEVNIDQERNPDGRMRATVEIEPPPGDPSAGGSAGG [r6_907_TrROS]
- folding stability dG unfold [1]: -0.767 ± 0.28 kcal/mol
- folding stability dG unfold [2]: -0.472 ± 0.15 kcal/mol

Sequence: SAGGSAGGIWIPADEFKGQPIKVRIKHNGNERPIEEVKIKSHPDGFVFIEFPPELPENMKIEIESAGGSAGG [r6_630_TrROS]
- folding stability dG unfold [1]: -0.0114 ± 0.15 kcal/mol
- folding stability dG unfold [2]: 0.453 ± 0.12 kcal/mol

Sequence: SAGGSAGGMIRTYELPETGEVRVLIRTPNPEEAEALAAEVRAELAAAGLDVPVEISPGPASALDSAGGSAGG [r6_641_JUSTAS]
- folding stability dG unfold [1]: 0.283 ± 0.18 kcal/mol
- folding stability dG unfold [2]: 0.703 ± 0.2 kcal/mol

Sequence: SAGGSAGGMIVELPTPDDETLTLTTRPTPDGSVPVTATRLTPDSTEVTTVSTADPAVVELVAAASAGGSAGG [r6_607_JUSTAS]
- folding stability dG unfold [1]: < -1 kcal/mol
- folding stability dG unfold [2]: -0.448 ± 0.26 kcal/mol

Sequence: SAGGSAGGMKITITFPDGTKKEIEVESEEELLEAIKKLAEELGLEKEVTVTVEYNGKTYTITLKSAGGSAGG [r6_531_TrROS_Hall]
- folding stability dG unfold [1]: 5.06 ± 0.32 kcal/mol
- folding stability dG unfold [2]: 5.13 ± 0.25 kcal/mol

Sequence: SAGGSAGGMKTKTYTIPLSQVSSIDPSGTVSEEEVKALGLPPNFKATVVPLPGSEEAVEVTVPESAGGSAGG [r6_553_JUSTAS]
- folding stability dG unfold [1]: -0.381 ± 0.18 kcal/mol
- folding stability dG unfold [2]: 0.115 ± 0.11 kcal/mol

Sequence: SAGGSAGGMTIPAEKIKGKPIKVLVDRGNAIFPLKEAKVKTKPDGRVELYVPKELGEDTKIIAGSAGGSAGG [r6_628_TrMRF]
- folding stability dG unfold [1]: < -1 kcal/mol
- folding stability dG unfold [2]: -0.573 ± 0.18 kcal/mol

Sequence: SAGGSAGGMVKTYKTDKETAIELAEKIKKQGVKVEITPHPDSTLLTITINEPKIDPKNSPNIIISAGGSAGG [r6_392_JUSTAS]
- folding stability dG unfold [1]: < -1 kcal/mol
- folding stability dG unfold [2]: 0.0843 ± 0.3 kcal/mol

Sequence: SAGGSAGGPIRIDPEDGRIRNNGQPYKFDKIEDIEPNENNKSIRLTIRMKNGKEHKQPIPADDISAGGSAGG [r6_682_TrROS]
- folding stability dG unfold [1]: < -1 kcal/mol
- folding stability dG unfold [2]: -0.759 ± 1 kcal/mol

Sequence: SAGGSAGGPKWRRYTIPLDKIKEIDPGGTVTLDDIQDLGLPPDHEIRVVPRPDGEPWVSIEVPYSAGGSAGG [r6_553_TrROS]
- folding stability dG unfold [1]: 0.201 ± 0.11 kcal/mol
- folding stability dG unfold [2]: 0.506 ± 0.14 kcal/mol

Sequence: SAGGSAGGSAAGFTAPVVQVRTENGKIYIDVKNSSVSLTVPENAEITPLESEVVKITPLPAPSAGGSAGGSA [r18_468_JUSTAS]
- folding stability dG unfold [1]: 0.00621 ± 0.22 kcal/mol
- folding stability dG unfold [2]: 0.542 ± 0.1 kcal/mol

Sequence: SAGGSAGGSAARAYTDVDPVPSTLPNGERVVRVTEAGTGTTSDVPLEALADLDRGAGVTVPPSAGGSAGGSA [r18_288_JUSTAS]
- folding stability dG unfold [1]: -0.249 ± 0.069 kcal/mol
- folding stability dG unfold [2]: 0.538 ± 0.059 kcal/mol

Sequence: SAGGSAGGSADNPQVERTIHDPNGGFKVMINPNDNSIEIWPYKNDKPEPKTFDSPEALDDISAGGSAGGSAG [r3_426_TrROS]
- folding stability dG unfold [1]: -0.387 ± 0.29 kcal/mol
- folding stability dG unfold [2]: 0.136 ± 0.17 kcal/mol

Sequence: SAGGSAGGSAEKDVKLLDVEELEEERVALVEFPVDPKVVRIKFDKDMTIDEIKKKAKELAGSAGGSAGGSAG [r3_142_TrMRF]
- folding stability dG unfold [1]: 0.0889 ± 0.15 kcal/mol
- folding stability dG unfold [2]: 0.523 ± 0.03 kcal/mol

Sequence: SAGGSAGGSAEVTFKKVSFSPPENTVYVSEVKAKLYVGEDDSLKFKVEPVKVEKVSPADLLAKSAGGSAGGS [r12_374_TrMRF]
- folding stability dG unfold [1]: -0.439 ± 0.16 kcal/mol
- folding stability dG unfold [2]: 0.0476 ± 0.16 kcal/mol

Sequence: SAGGSAGGSAGGAAEVLEALRAARGQPVVVLVKDPAGNEREVTVPGDTARFPGWTVVELLSAGGSAGGSAGG [r7_998_JUSTAS]
- folding stability dG unfold [1]: 0.341 ± 0.17 kcal/mol
- folding stability dG unfold [2]: 0.739 ± 0.11 kcal/mol

Sequence: SAGGSAGGSAGGAIEEARDLAKEGGPWEATIPVYDPNGGPKTIKIRVEVERDPENGKFKSAGGSAGGSAGGS [r10_346_TrROS]
- folding stability dG unfold [1]: -0.0783 ± 0.19 kcal/mol
- folding stability dG unfold [2]: 0.257 ± 0.12 kcal/mol

Sequence: SAGGSAGGSAGGAMPNDVKVTTTTFTGTETLTLTDASGTPTSSTKTVTTTRTSVFPDTTSAGGSAGGSAGGS [r10_1212_JUSTAS]
- folding stability dG unfold [1]: 0.311 ± 0.13 kcal/mol
- folding stability dG unfold [2]: 0.733 ± 0.1 kcal/mol

Sequence: SAGGSAGGSAGGAPVTVIPVKKDNPEVREKTAKELKEKAKEIDPSNIKITIEKGVVTLESAGGSAGGSAGGS [r10_182_JUSTAS]
- folding stability dG unfold [1]: -0.0644 ± 0.13 kcal/mol
- folding stability dG unfold [2]: 0.263 ± 0.049 kcal/mol

Sequence: SAGGSAGGSAGGAVGPDVGLPDAPVRFRNPSDDKVFTAYVPAGANFADLAKKYGVEIEPSAGGSAGGSAGGS [r10_202_TrMRF]
- folding stability dG unfold [1]: 0.167 ± 0.15 kcal/mol
- folding stability dG unfold [2]: 0.673 ± 0.14 kcal/mol

Sequence: SAGGSAGGSAGGDVLLFVDESTGLADARALAEALGLKDVVIVPVPPAKPVVLNADGSPTSAGGSAGGSAGGS [r10_1083_TrMRF]
- folding stability dG unfold [1]: -0.0616 ± 0.1 kcal/mol
- folding stability dG unfold [2]: 0.63 ± 0.052 kcal/mol

Sequence: SAGGSAGGSAGGEPDPKFHVEYDEEEGRYKVKIYNPNNNKKEEIEVPVPPGQPKEEAIKSAGGSAGGSAGGS [r10_676_TrROS]
- folding stability dG unfold [1]: -0.269 ± 0.27 kcal/mol
- folding stability dG unfold [2]: 0.0247 ± 0.11 kcal/mol

Sequence: SAGGSAGGSAGGGERRRVLHINPEDGYIQRMEFDPDDGEPTGSETVPFKSPEDALDKLIDSAGGSAGGSAGG [r7_105_TrROS]
- folding stability dG unfold [1]: -0.152 ± 0.2 kcal/mol
- folding stability dG unfold [2]: 0.342 ± 0.14 kcal/mol

Sequence: SAGGSAGGSAGGGEYAKIKIKNPINPKYKEIEIEIPSNKKNVIINATGSGNATITEIKLESAGGSAGGSAGG [r7_687_TrMRF]
- folding stability dG unfold [1]: -0.584 ± 0.49 kcal/mol
- folding stability dG unfold [2]: 0.177 ± 0.27 kcal/mol

Sequence: SAGGSAGGSAGGGMILNITLIRPDGKPIVIEGPLDKPLYNPKKAGIENIPPEKLVKVEPRSAGGSAGGSAGG [r7_745_TrMRF]
- folding stability dG unfold [1]: < -1 kcal/mol
- folding stability dG unfold [2]: -0.891 ± 0.8 kcal/mol

Sequence: SAGGSAGGSAGGGMRLVEVPPGDPAAVEARLAELGPDARLLEVRRLPEEGRWVVLVSEESAGGSAGGSAGGS [r10_23_JUSTAS]
- folding stability dG unfold [1]: -0.258 ± 0.33 kcal/mol
- folding stability dG unfold [2]: 0.643 ± 0.2 kcal/mol

Sequence: SAGGSAGGSAGGGPMLRYTLTFTLPDSTVTKEFSSEEEVEEAKEQLPEEYPVDPNVTVSPSAGGSAGGSAGG [r7_18_JUSTAS]
- folding stability dG unfold [1]: -0.22 ± 0.32 kcal/mol
- folding stability dG unfold [2]: -0.113 ± 0.43 kcal/mol

Sequence: SAGGSAGGSAGGGPNIRTVTETTVEPTPDSVVTTRPVYYVDPSGTVLGSETTTTVDPNTTSAGGSAGGSAGG [r7_812_JUSTAS]
- folding stability dG unfold [1]: -0.26 ± 0.13 kcal/mol
- folding stability dG unfold [2]: 0.179 ± 0.034 kcal/mol

Sequence: SAGGSAGGSAGGGPPLPLRVEREEKVEKTPDDRVLIKRKVTVELPDRPLSEEESIEILLESAGGSAGGSAGG [r7_293_JUSTAS]
- folding stability dG unfold [1]: -0.415 ± 0.25 kcal/mol
- folding stability dG unfold [2]: 0.146 ± 0.2 kcal/mol

Sequence: SAGGSAGGSAGGIYIPLEDLEKNGLGFEELVEKLGVDVEIEVLETEPGKPVAKIRPKLGSAGGSAGGSAGGS [r10_855_TrMRF]
- folding stability dG unfold [1]: 0.435 ± 0.093 kcal/mol
- folding stability dG unfold [2]: 0.968 ± 0.027 kcal/mol

Sequence: SAGGSAGGSAGGKTLSKEEALKKAKELAEKGEKVKIEVKNKKTKKTETIEITKEELEKLSAGGSAGGSAGGS [r10_779_TrROS_Hall]
- folding stability dG unfold [1]: 0.151 ± 0.44 kcal/mol
- folding stability dG unfold [2]: 0.47 ± 0.13 kcal/mol

Sequence: SAGGSAGGSAGGLIPPNQKIKIKEIEPPNNEMNIDLEYPDNGKKVEFPFDSPEQALDALSAGGSAGGSAGGS [r10_1038_TrROS]
- folding stability dG unfold [1]: 0.227 ± 0.14 kcal/mol
- folding stability dG unfold [2]: 0.658 ± 0.049 kcal/mol

Sequence: SAGGSAGGSAGGLPINARPPNIAEVIRALRESGRYRVVEIRPFGDGAVIRVEKDGVPLESAGGSAGGSAGGS [r10_695_TrMRF]
- folding stability dG unfold [1]: 0.0741 ± 0.34 kcal/mol
- folding stability dG unfold [2]: 0.769 ± 0.19 kcal/mol

Sequence: SAGGSAGGSAGGMKIRVTHPTNKTEEIIPVSELKKIPGPYTIEPLGPDPELAEKIKKLLSAGGSAGGSAGGS [r10_419_JUSTAS]
- folding stability dG unfold [1]: 0.142 ± 0.25 kcal/mol
- folding stability dG unfold [2]: 0.553 ± 0.22 kcal/mol

Sequence: SAGGSAGGSAGGMKITLKVKKPDGTTTTITVDIDESKIEEIKEEIAPKGYEVEEAEIELESAGGSAGGSAGG [r7_159_JUSTAS]
- folding stability dG unfold [1]: 0.00742 ± 0.36 kcal/mol
- folding stability dG unfold [2]: 0.638 ± 0.12 kcal/mol

Sequence: SAGGSAGGSAGGMPAEEVQNIIEEQGFDGPNQTVTIDVPDGRRVKIEMPPNGMKLEVEDSAGGSAGGSAGGS [r10_604_TrROS]
- folding stability dG unfold [1]: -0.538 ± 0.31 kcal/mol
- folding stability dG unfold [2]: 0.0665 ± 0.081 kcal/mol

Sequence: SAGGSAGGSAGGMPPRLVEIPIFVPPTDPARAEALAEELREELGAEEVVVRIVLAPPGLGSAGGSAGGSAGG [r7_632_JUSTAS]
- folding stability dG unfold [1]: 0.414 ± 0.072 kcal/mol
- folding stability dG unfold [2]: 0.982 ± 0.013 kcal/mol

Sequence: SAGGSAGGSAGGMRTFPSESLETLPENGLRKKTLTVTYVPPDNPERSYVETEVEIIPSEVSAGGSAGGSAGG [r17_241_JUSTAS]
- folding stability dG unfold [1]: < -1 kcal/mol
- folding stability dG unfold [2]: -1.03 ± 0.34 kcal/mol

Sequence: SAGGSAGGSAGGMTETVTLTEVGVTTKTAPLPEGPLTTTPTVTVDRVITLPPSSPAALALSAGGSAGGSAGG [r7_889_JUSTAS]
- folding stability dG unfold [1]: < -1 kcal/mol
- folding stability dG unfold [2]: -0.257 ± 0.42 kcal/mol
